Assay results published in patent US20120093799A1, “RECOMBINANTLY MODIFIED PLASMIN” (priority 2007, published 2012).
Values joined by “and” are separate entries in the source; they are usually repeats but may differ in a detail not shown here. Identical values can stand only once.

Experiments:
[1] = amidolytic activity with plasmin substrate S-2251, steady-state kinetics; format: biochemical; details: substrate S-2251, PBS buffer, pH 7.4, 25° C.; for kcat: for (TAL6003)-plasmin corrected for percent active sites
Description: The amidolytic activity of (TAL6003)-plasmin was examined using the plasmin substrate D-Val-Leu-Lys-p-nitroanilide (S-2251) (DiaPharma, West Chester, Ohio).
Correcting kcat for percent active sites, a kcat of about 725 min^−1 was determined. This value was very close to the value determined in the same assay for full-length plasmin, 820±23 min^−1 and for micro-plasmin (lacking all five kringles), 795±24 min^−1.

α2-antiplasmin [2] = target: T1, α2-antiplasmin (Homo sapiens, UniProt P08697); test: rate of inhibition by α2-antiplasmin (method of Wiman and Collen, S-2251 activity at time points); format: biochemical; details: 22° C. in PBS buffer, pH 7.4
T1 sequence (P08697 40-491): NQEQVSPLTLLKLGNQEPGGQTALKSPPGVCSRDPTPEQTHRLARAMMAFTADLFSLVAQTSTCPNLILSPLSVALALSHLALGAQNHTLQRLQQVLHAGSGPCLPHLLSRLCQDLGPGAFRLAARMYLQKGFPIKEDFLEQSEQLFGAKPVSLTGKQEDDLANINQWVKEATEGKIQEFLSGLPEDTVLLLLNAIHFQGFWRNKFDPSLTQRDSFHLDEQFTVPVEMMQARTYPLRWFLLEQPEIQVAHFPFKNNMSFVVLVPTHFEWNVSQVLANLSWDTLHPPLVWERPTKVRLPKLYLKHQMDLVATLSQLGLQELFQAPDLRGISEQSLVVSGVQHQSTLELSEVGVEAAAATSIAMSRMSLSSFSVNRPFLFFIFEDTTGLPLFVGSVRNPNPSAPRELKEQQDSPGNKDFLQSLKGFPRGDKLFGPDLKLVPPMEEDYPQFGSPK
Description: The rate of inhibition of (TAL6003)-plasmin by α2-antiplasmin was determined to be 1.8±0.06×10^7 M^−1 s^−1 using the method of Wiman and Collen (Wiman, B. and D. Collen, Eur. J. Biochem. 84: 573-578 (1978)) in which plasmin and α2-antiplasmin are mixed then assayed for S-2251 activity at specific time points (Table 3).
Literature values are taken from Anonick, et al., Thrombosis Res. 59: 449 (1990). All rates were measured according to the methods published in Anonick, et al.

α2-antiplasmin [3] = target: T1, α2-antiplasmin; details: from Anonick et al., cited from earlier work
fibrin = fibrin binding microtiter plate assay (activation by tPA and resulting clot lysis)
Description: One property of plasminogen is its ability to bind fibrin. In order to determine whether (TAL6003)-plasminogen retains the ability to interact with fibrin, its fibrin-binding properties was tested in a microtiter plate assay in which binding of (TAL6003)-plasminogen to fibrin was assessed by its subsequent activation by tPA and resulting clot lysis. For this purpose, 100 μL of 5 mg/mL fibrinogen was polymerized with thrombin in each well of a microtiter plate. Various concentrations of (TAL6003)-plasminogen was added on top of the fibrin clots and incubated for 1 hour at 37° C. The plate was washed extensively with PBS while the fibrin clots are still intact and attached to the wells. After washing, a 0.1 mg/mL solution of tPA was added to each well and the plate was incubated 2 hours at 37° C. As a result, some of the clots were completely dissolved and some were partially dissolved, while wells with very low amounts of (TAL6003)-plasminogen and control wells remained practically intact. The degree of fibrinolysis was monitored by measuring the 280 nm absorbance of remainders of the initial clots reconstituted in 1 M NaOH. The absorbance values were plotted as a function of (TAL6003)-plasminogen concentration.

[4] = binding of ε-ACA measured by changes in protein fluorescence; details: 50 mM Tris, 20 mM NaCl, pH 8.0, 25° C.; 0-50 μM ε-ACA
Description: To further confirm the functionality of kringle 1, the binding of ε-ACA to (TAL6003)-plasminogen was measured by monitoring the associated changes in protein fluorescence as described by Matsuka et al., Eur. J. Biochem. 190: 93-97 (1990) and Douglas et al., J. Biochemistry 41: 3302-3310 (2002), all incorporated herein by reference. Binding of ε-ACA to kringle 1 of (TAL6003)-plasminogen results in a decrease in fluorescence, likely due to quenching of the tryptophan residues which are part of the lysine-binding site.
To monitor this process, 4 μL to 16 μL aliquots of a concentrated solution of ε-ACA were added to 2 mL of 5 μM (TAL6003)-plasminogen in 50 mM Tris buffer containing 20 mM NaCl, pH 8.0, 25° C. The fluorescence was monitored at an excitation wavelength of 298 nm and an emission wavelength of 340 nm in a FLUOROMAX fluorescence spectrophotometer (Jobin Yvon, Inc., Edison, N.J.); after each addition of ε-ACA, the solution was allowed to equilibrate until no further changes in fluorescence were observed.
The resulting fluorescence values were corrected for dilution and plotted versus the concentration of ε-ACA over a range of 0-50 μM ε-ACA.

[5] = binding to lysine-SEPHAROSE 4B column, elution with ε-ACA gradient
Description: FIG. 7 is a chromatogram showing binding of (TAL6003)-plasminogen to lysine-SEPHAROSE™ 4B: 0.5 mg of purified (TAL6003)-plasminogen was applied on the lysine-SEPHAROSE™ 4B column (1×3 cm) equilibrated with Tris-buffered saline, pH 7.4. Bound protein was eluted from the column by a 0-20 mM gradient of ε-aminocaproic acid (ε-ACA) as a single peak. The absorbance at 280 nm and the concentration of ε-ACA, as a function of the effluent volume are presented on the graph.
To confirm the functionality of kringle 1, we determined the binding of TAL6003-plasminogen to lysine-SEPHAROSE™ 4B.

B1: micro-plasmin: plasmin species lacking all five kringles (protein)
chain: APSFDCGKPQVEPKKCPGRVVGGCVAHPHSWPWQVSLRTRFGMHFCGGTLISPEWVLTAAHCLEKSPRPSSYKVILGAHQEVNLEPHVQEIEVSRLFLEPTRKDIALLKLSSPAVITDKVIPACLPSPNYVVADRTECFITGWGETQGTFGAGLLKEAQLPVIENKVCNRYEFLNGRVQSTELCAGHLAGGTDSCQGDSGGPLVCFEKDKYILQGVTSWGLGCARPNKPGVYVRVSRFVTWIEGVMRNN
[1]
  Km: 145 ± 13 µM
  kcat: 13.2 ± 0.4 s⁻¹
α2-antiplasmin [2]
  rate of inhibition by α2-antiplasmin: 1.8 ± 0.2 × 10^5 M^−1 s^−1

B2: plasmin: native full-length human plasmin with five kringle domains and serine protease domain (protein, UniProt P00747 20-580; P00747 581-810, looked up)
Plasmin heavy chain A: EPLDDYVNTQGASLFSVTKKQLGAGSIEECAAKCEEDEEFTCRAFQYHSKEQQCVIMAENRKSSIIIRMRDVVLFEKKVYLSECKTGNGKNYRGTMSKTKNGITCQKWSSTSPHRPRFSPATHPSEGLEENYCRNPDNDPQGPWCYTTDPEKRYDYCDILECEEECMHCSGENYDGKISKTMSGLECQAWDSQSPHAHGYIPSKFPNKNLKKNYCRNPDRELRPWCFTTDPNKRWELCDIPRCTTPPPSSGPTYQCLKGTGENYRGNVAVTVSGHTCQHWSAQTPHTHNRTPENFPCKNLDENYCRNPDGKRAPWCHTTNSQVRWEYCKIPSCDSSPVSTEQLAPTAPPELTPVVQDCYHGDGQSYRGTSSTTTTGKKCQSWSSMTPHRHQKTPENYPNAGLTMNYCRNPDADKGPWCFTTDPSVRWEYCNLKKCSGTEASVVAPPPVVLLPDVETPSEEDCMFGNGKGYRGKRATTVTGTPCQDWAAQEPHRHSIFTPETNPRAGLEKNYCRNPDGDVGGPWCYTTNPRKLYDYCDVPQCAAPSFDCGKPQVEPKKCPGR
Plasmin light chain B: VVGGCVAHPHSWPWQVSLRTRFGMHFCGGTLISPEWVLTAAHCLEKSPRPSSYKVILGAHQEVNLEPHVQEIEVSRLFLEPTRKDIALLKLSSPAVITDKVIPACLPSPNYVVADRTECFITGWGETQGTFGAGLLKEAQLPVIENKVCNRYEFLNGRVQSTELCAGHLAGGTDSCQGDSGGPLVCFEKDKYILQGVTSWGLGCARPNKPGVYVRVSRFVTWIEGVMRNN
modifications: plasmin
notes: native full-length human plasmin with five kringle domains and serine protease domain
α2-antiplasmin [3]; 22° C. in PBS buffer, pH 7.4
  rate of inhibition by α2-antiplasmin (literature value, table): 2.5 ± 0.5 × 10^7 M^−1 s^−1
α2-antiplasmin [3]; Thrombosis Res. 59: 449 (1990)
  rate of inhibition by α2-antiplasmin (reported value, text): 2.5×10^7 M^−s^−1
[1]
  Km: 220 ± 9 µM
  kcat: 13.7 ± 0.383 s⁻¹
[1]; listed as full-length plasmin
  kcat: 13.7 ± 0.383 s⁻¹

B3: mini-plasmin: activated mini-plasminogen; domain composition K5-SP (kringle 5 and serine protease domain) (protein)
chain: VAPPPVVLLPDVETPSEEDCMFGNGKGYRGKRATTVTGTPCQDWAAQEPHRHSIFTPETNPRAGLEKNYCRNPDGDVGGPWCYTTNPRKLYDYCDVPQCAAPSFDCGKPQVEPKKCPGRVVGGCVAHPHSWPWQVSLRTRFGMHFCGGTLISPEWVLTAAHCLEKSPRPSSYKVILGAHQEVNLEPHVQEIEVSRLFLEPTRKDIALLKLSSPAVITDKVIPACLPSPNYVVADRTECFITGWGETQGTFGAGLLKEAQLPVIENKVCNRYEFLNGRVQSTELCAGHLAGGTDSCQGDSGGPLVCFEKDKYILQGVTSWGLGCARPNKPGVYVRVSRFVTWIEGVMRNN
[1]
  Km: 160 ± 30 µM
  kcat: 12.8 ± 1.17 s⁻¹
α2-antiplasmin [2]
  rate of inhibition by α2-antiplasmin: 2.4×10^5 M^−1 s^−1 and 2.4 ± 0.5 × 10^5 M^−1 s^−1

B4: (TAL6003)-plasminogen: recombinant plasminogen deletion mutant, single kringle plus serine protease domain, amino acid sequence SEQ ID NO: 2, expressed in E. coli (protein)
chain: MRDVVLFEKKVYLSECKTGNGKNYRGTMSKTKNGITCQKWSSTSPHRPRFSPATHPSEGLEENYCRNPDNDPQGPWCYTTDPEKRYDYCDVPQCAAPSFDCGKPQVEPKKCPGRVVGGCVAHPHSWPWQVSLRTRFGMHFCGGTLISPEWVLTAAHCLEKSPRPSSYKVILGAHQEVNLEPHVQEIEVSRLFLEPTRKDIALLKLSSPAVITDKVIPACLPSPNYVVADRTECFITGWGETQGTFGAGLLKEAQLPVIENKVCNRYEFLNGRVQSTELCAGHLAGGTDSCQGDSGGPLVCFEKDKYILQGVTSWGLGCARPNKPGVYVRVSRFVTWIEGVMRNN
modifications: Polypeptide having a single N-terminal kringle domain homologous to a kringle domain of a native human plasminogen
fibrin; 1 hour at 37° C. on fibrin clots, then tPA 2 hours, read-out: C50 of fibrin binding
  EC50: ~0.3 µM
fibrin; relative to full-length plasminogen
  fibrin binding affinity: comparable to that of full-length plasminogen
[4]
  Kd: ~19 µM
[5]; 0-20 mM ε-ACA gradient, single peak
  ε-ACA concentration at elution peak from lysine-SEPHAROSE: about 4 mM
[5]; column equilibrated with Tris-buffered saline, pH 7.4
  binding to lysine-SEPHAROSE 4B: bound to lysine-SEPHAROSE™
